Results reported in the DeepSol protein solubility set.

assay: soluble on expression in E. coli; label from the status in PepcDB or PDB records

Soluble on expression in E. coli, soluble:
GMVEKPQLKFKSPIDNSESHPFIPLLKEKPNALKPLSESLRLVDDDENNPSHYPHPYEYEIDHQEYSPEILQIREEIPSKSWDDSVPIWVDTSTELESMLEDLKNTKEIAVDLEHHDYRSYYGIVCLMQISTRERDYLVDTLKLRENLHILNEVFTNPSIVKVFHGAFMDIIWLQRDLGLYVVGLFDTYHASKAIGLPRHSLAYLLENFANFKTSKKYQLADWRIRPLSKPMTAAARADTHFLLNIYDQLRNKLIESNKLAGVLYESRNVAKRRFEYSKYRPLTPSSEVYSPIEKESPWKILMYQYNIPPEREVLVRELYQWRDLIARRDDESPRFVMPNQLLAALVAYTPTDVIGVVSLTNGVTEHVRQNAKLLANLIRDALRNIKNTNEEATPIPSSETKADGILLET
DVVVTQTPLSLPVSLGDQASISCRSSEVIVTRNGYTPIEWYLQKPGQSPKLLIYKAYKRFPGVPDRFSGSGSGTDFTLKISRVEAEDLGVYYCFDGSTVPPKFGGGTKLEIKRADAAPTVSIFPPSSEQLTSGGASVVCFLNNFYPKDINVKWKIDGSERQNGVLNSWTDQDSKDSTYSMSSTLTLTKDEYERHNSYTCEATHKTSTSPIVKSFNRDEC
AHHHHHHGSRIVAITDIHGRRSMVEKLVDVVRREDVDVILIAGDITHFSGAEEAERVLSPLLTLEIPLLAVMGNCDGRDVLDFLEERGVSVHDKRVEIKGVGVVGFGGSNITPFSTIWEFSDDVIYSSLIRNYRQGDIVLTHAPPYGTKLDKTHSGIHAGSMGLRKFIEEKQPKLCICGHIHEGRGVEKIGNTIVVNPGPLARGYYAVIEGDSVELLNLKG
MSESLTWHDVIGNEKQQAYFQQTLQFVESQRQAGKVIYPPAKDVFNAFRFTEFGDVKVVILGQDPYHGPNQAHGLCFSVLPGVKTPPSLVNIYKELAQDIPGFQIPPHGYLQSWAQQGVLLLNTVLTVEQGMAHSHANTGWETFTDRVIDALNQHRNGLIFLLWGSHAQKKGQMIDRQRHHVLMAPHPSPLSAHRGFLGCRHFSKTNQLLQAQGIAPINWQPELES

Soluble on expression in E. coli, not soluble:
MEAGFVSIGDVTFRDLEDEAIVELVRKGNTDALEYLIHKYKNFVRAKSRSYFLVGADREDIVQEGMIGLFKAIRDYKEDKLSSFKAFAELCITRQIITAIKTATRQKHIPLNSYVSLDKPIYDEESDRTLLDVISEAKVTDPEEMIISQEEYTDIESKISELLSDLERKVLSLYLDGRSYQEISEQLNRHVKSIDNALQRVKRKLERYMEMRESTTLNS
MSEFSPLRRKILLGGAATAGLSLFPSFSFASQFAETPRKLALSNLHTGEELKTEYFNGRQYQSAELHKLNHLCRDFRRNESIEMDKRLFDQLSAIQNVIGCDTQVQIISGYRSPATNEMLRGKSHGGVAKKSLHMLGKAMDFRLEGVPLAEVRKAALSLKAGGVGYYPGSNFVHIDTGRVRFW
MQQLREGAPADVFISADKKNMDKALADGTVGSSVKVATNSMVMVVPQGNPGKVTSVSDLAGKTVVLCDVQVPCGTISKKLQDANGVEIKAASLESSVSDVLGKVVSGEADAGWVYRTDAAAAGNKVEVIDIPHAQEFENSLYAAVSTHSTSPDEAQKLLDLIVSPKMAQVWKDHGFSPAQ
MKGDRLADIRTIGVVVLYRPDSSVLDAIASYRHQVHELIVVDNSEEQDHKLHSRLRDRFGATIVGEGRNLGIAAALNRAAREALAEGFDLLLTMDQDSRAEPGMVEQMLACLGSDWRERVGLIAPFHLTGARPAPGGTTPCSDVMTPMTSGCLVNLAAFREVGPFRDDFFIDFVDNEYCLRLRKKGFQVVRANRALLHHRVGDLRRYGPFVATHHSPLRRYYKTRNRCAVFAEYLRDFPVHCLFDLVRLGKEVASILIFEREKTAKLRMMWRGFLDFRRGRFGPYGGLEHHHHHH
MSVEFQFQALVEDTPNEKWKAIFQQLWPGYRAWFLRSGVTGRPTYLECRQALRTYMPELVPLWEQLIELTGGGDVESRFLSLWCPPPYIAGCSQGVWFDPKGQEEPILLRNYDFAPVLLEGNLLNTRWLDQRVIAMSDCLWGALDGVNEAGLSASLSFGGRTVTGTGFGIPLVLRYILELAHTTQDAVNILKRIPVHMTYSVTLLDRKGEWNTVFVSPDRQPEVVKRHAVTNYQNAIEWPQHATATHSAERLTFLEQVLHHATNSHEVLQGLLTKPLYQDAWLRGYGTLYSAIYRPLSQKVEICWPHDYSQQSFEHFTEEQKLILLSVELEHHHHHH
